One assay addresses T1, IL-17RB (UniProt Q9NRM6 18-289, limits assumed).
T1 sequence (looked up): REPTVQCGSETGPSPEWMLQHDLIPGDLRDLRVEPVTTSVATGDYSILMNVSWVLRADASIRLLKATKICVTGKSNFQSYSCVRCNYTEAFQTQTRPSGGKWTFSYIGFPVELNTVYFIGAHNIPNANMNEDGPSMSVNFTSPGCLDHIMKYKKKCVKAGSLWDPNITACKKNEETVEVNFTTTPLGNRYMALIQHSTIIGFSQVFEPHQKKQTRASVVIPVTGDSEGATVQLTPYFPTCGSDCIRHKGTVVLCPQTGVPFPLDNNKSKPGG
Briefly: specificity ELISA, antigen coated, anti-His-HRP detection. Here is the method: (§1) The binding ELISA for crude or purified VH was similar to the serum ELISA and phage ELISA, previously described, mostly differing in the final detection steps. Briefly, antigen was immobilised on maxisorb plates (Nunc 443404) by adding 50 ul volumes at 0.1-1 ug/ml in PBS and incubating at 4° C. overnight. Following coating, the antigen solution was aspirated and the plates were washed using PBS (prepared from PBS tablets, Oxoid cat no. BR0014G) supplemented with 0.05% Tween® 20 (sigma P1379), followed by washes with PBS without added Tween®. To block non-specific protein interactions, a solution of 3% skimmed milk powder (Marvel) in PBS was added to the wells and the plate was incubated for at least one hour at room temperature. Dilutions of periplasmic extract or purified VH in 3% Marvel/PBS were prepared in polypropylene tubes or plates and incubated for at least one hour at room temperature prior to transfer to the blocked ELISA plate where a further incubation of at least one hour took place. Unbound protein was then washed away using repetitive washes with PBS/Tween® followed by PBS. A solution of HRP-conjugated anti-His Ab (Miltenyi Biotec, 130-092-785), prepared at 1:1000 dilution in PBS/3% Marvel was then added to each well and a further incubation at room temperature for at least one hour took place. Unbound detection antibody was removed by repeated washing using PBS/Tween® and PBS. The ELISA was then developed using TMB substrate (Sigma cat. no. T0440) and the reaction was stopped after 10 minutes by the addition of 0.5M H₂SO₄ solution (Sigma cat. no. 320501). Absorbances were determined by reading at 450 nm.

Another assay concerns the target T2, IL-17RD (UniProt Q8NFM7 17-299, limits assumed).
T2 sequence (looked up): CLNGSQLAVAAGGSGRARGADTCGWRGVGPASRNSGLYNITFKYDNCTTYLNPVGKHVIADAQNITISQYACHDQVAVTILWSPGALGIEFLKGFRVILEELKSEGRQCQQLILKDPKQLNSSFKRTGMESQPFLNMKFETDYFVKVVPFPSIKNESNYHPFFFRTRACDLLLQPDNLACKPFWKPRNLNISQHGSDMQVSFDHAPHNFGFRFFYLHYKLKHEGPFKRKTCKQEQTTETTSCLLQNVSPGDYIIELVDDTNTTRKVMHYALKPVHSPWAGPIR
Described as above. Here is the method: as §1

B1: VH clone 2.1 (VHH)
VHH: QVQLVQSGAEVKKPGASVKVSCKASGYPFTSYDINWVRQATGQSLEWMGWMNPNSGDTVYAQKFQGRVTMTRNTSISTAYMELSSLRSEDTAVYFCARGRRDDWKNNYWGQGTLVTVSS
notes: Human VH single domain antibody, no light chain; Parent clone of family 2; also called VH 2.1
Consider B1, for which the binding result with IL-17RB and with IL-17RD was “no binding” each time.

The values above are taken from patent publication US20180215829A1 (CRESCENDO BIOLOGICS, published 2018).
